Consider four molecules from paper PMC2713385 (Journal of molecular biology, 2009).

For data set [1], the target named is bacteriophage HK620 gp26-like tail needle (bacteriophage HK620). Nature of the data set: SDS-PAGE.
Data set [2] has the same target. Nature of the data set: AUC.
Data set [3] deals with bacteriophage Sf6 gp26-like tail needle (bacteriophage Sf6). Nature of the data set: SDS-PAGE.
For data set [4] the target is unchanged. Nature of the data set: AUC.
Data set [5] deals with phage HS1 gp26-like tail needle (prophage HS1 of E. coli strain HS). Nature of the data set: SDS-PAGE.
The target is the same in data set [6]. Briefly: AUC.
The data set “AUC” deals with the molecule itself. Nature of the data set: AUC.

As usually defined, the stoichiometry N is the number of molecules, sites or subunits per partner or assembly. As to “bacteriophage HK620 gp26-like tail needle (natural protein)”, the stoichiometry N in data set [1] and in data set [2] was 3 throughout.
In the case of “bacteriophage Sf6 gp26-like tail needle (natural protein)”, the stoichiometry N in data set [3] and in data set [4] was 3 each time.
Turning to “phage HS1 gp26-like tail needle (natural protein)”, the stoichiometry N in data set [5] and in data set [6] was 3 in each case.

B1: bacteriophage P22 tail needle gp26 (natural protein, UniProt P35837 1-233, looked up)
chain: MADPSLNNPVVIQATRLDASILPRNVFSKSYLLYVIAQGTDVGAIAGKANEAGQGAYDAQVKNDEQDVELADHEARIKQLRIDVDDHESRITANTKAITALNVRVTTAEGEIASLQTNVSALDGRVTTAENNISALQADYVSKTATTSQSLASPLNVTTSYSVGGKKVLGARQTGWTAATGTANKGVFDADLTFAVSDTYTQSEIQAIANALITERRRTKALEDALRAHGLID
As to B1, the “stoichiometry N” value in “AUC” was determined as 3.
